Data from patent publication US20250026827A1 (Alector, published 2025).
Read-outs that look alike come from different tables or passages of the source.

T1: mouse SIRPβ1 on CHO cells (mouse)
T1 construct: Whole entry
T1 chain: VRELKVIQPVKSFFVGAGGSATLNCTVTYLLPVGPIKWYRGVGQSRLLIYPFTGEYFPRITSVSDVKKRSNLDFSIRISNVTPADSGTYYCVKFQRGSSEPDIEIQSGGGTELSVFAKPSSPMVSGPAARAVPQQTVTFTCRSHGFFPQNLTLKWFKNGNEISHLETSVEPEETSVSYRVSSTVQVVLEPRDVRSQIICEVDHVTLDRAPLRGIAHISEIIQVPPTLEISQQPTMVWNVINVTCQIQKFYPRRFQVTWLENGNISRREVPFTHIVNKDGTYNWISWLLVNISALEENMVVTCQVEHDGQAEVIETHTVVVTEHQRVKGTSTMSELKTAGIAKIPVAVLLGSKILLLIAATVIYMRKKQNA

T2: mouse SIRPα on cells (mouse, UniProt P97797 32-513)
T2 construct: whole, on cells
T2 sequence (looked up): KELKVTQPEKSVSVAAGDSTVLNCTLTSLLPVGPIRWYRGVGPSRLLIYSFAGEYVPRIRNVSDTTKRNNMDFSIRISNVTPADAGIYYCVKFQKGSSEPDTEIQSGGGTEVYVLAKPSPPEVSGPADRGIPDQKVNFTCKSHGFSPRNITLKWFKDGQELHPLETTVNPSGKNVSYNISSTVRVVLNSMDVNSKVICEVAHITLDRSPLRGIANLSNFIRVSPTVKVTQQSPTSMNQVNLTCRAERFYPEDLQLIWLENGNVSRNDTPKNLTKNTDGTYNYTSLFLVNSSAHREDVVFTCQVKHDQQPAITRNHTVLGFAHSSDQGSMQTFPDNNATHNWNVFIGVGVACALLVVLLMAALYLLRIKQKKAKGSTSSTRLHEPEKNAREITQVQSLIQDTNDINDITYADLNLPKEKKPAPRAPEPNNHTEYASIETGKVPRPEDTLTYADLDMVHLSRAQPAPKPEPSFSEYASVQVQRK

T3: mouse SIRPα D1-Fc (mouse, UniProt P97797 32-150, limits assumed)
T3 construct: domain: D1
T3 sequence (looked up): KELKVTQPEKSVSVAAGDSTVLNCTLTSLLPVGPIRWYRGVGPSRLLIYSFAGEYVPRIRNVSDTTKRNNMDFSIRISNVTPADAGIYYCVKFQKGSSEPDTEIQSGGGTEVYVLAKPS


How the values were obtained:
SIRPγ on Jurkat cells = target: T4, SIRPγ on Jurkat cells (human, UniProt Q9P1W8 29-387); test: flow cytometry on Jurkat cells (endogenous SIRPγ), fold over isotype (MFI)
T4 construct: whole, on cells
Method: (§1) To determine antigen specificity of anti-SIRPβ1 antibodies of the present disclosure, cell-based affinity measurements were performed to ascertain the apparent affinities of affinity-matured anti-SIRPβ 1 antibodies to cell surface-expressed antigen. BW5147.G.1.4 cells, an immortalized mouse T-cell line, were engineered to overexpress human SIRPβ1 (BWZ-huSIRPβ1) or human SIRPα (BWZ-huSIRPα). Jurkat cells, an immortalized human T cell line, endogenously express SIRPγ.
(§2) In these experiments, two antibodies previously described were used as positive controls: antibody 18D5 (an anti-SIRPβ antibody that cross-reacts with SIRPα and SIRPβ) and antibody KWAR23 (an anti-SIRPβ antibody that cross-reacts with SIRPα, SIRPβ, and SIRPγ). These antibodies were recombinantly produced on a human IgG4 backbone. […] Serial dilutions of each of the anti-SIRPβ1 monoclonal antibodies and control antibodies were added to 10⁵ cells and allowed to achieve binding equilibrium at 4° C. After addition of fluorescently-labeled secondary antibody and brief washing steps, MFI values as a function of titrated antibody concentration were recorded via FACS analysis.
(§3) Receptor bound antibodies were detected by staining cells with anti-human IgG PE secondary antibody (Southern Biotech). Curves were fit using nonlinear regression analysis with Graphpad Prism 6 software.

[1] = target: T1, mouse SIRPβ1 on CHO cells; test: flow cytometry
human SIRPα on cells [2] = target: T5, human SIRPα on cells (human, UniProt P78324 31-504); test: flow cytometry on BWZ cells overexpressing human SIRPα, fluorescent secondary antibody, MFI
T5 construct: Whole entry
Method: as §1, §2, §3

[3] = target: T6, human SIRPβ1 isoform 1 on cells (human, UniProt O00241 30-398); test: flow cytometry titration, BWZ-huSIRPβ1 cells
T6 construct: On CHO cells (low level), on BWZ/BW5147.G.1.4 cells (reporter cells co-express human DAP12) or on primary human myeloid cells; also called huSIRPβ1; BWZ-huSIRPβ1
Method: as §2
In Table 14 below, EC50 values assign relative affinity by adding increasing concentrations of antibody variants to cells overexpressing SIRPβ 1. Receptor bound antibodies were detected by staining cells with anti-human IgG PE secondary antibody (Southern Biotech). Curves were fit using nonlinear regression analysis with Graphpad Prism 6 software.

[4] = target: T7, human SIRPα domain 1 (D1) Fc fusion (human, UniProt P78324 32-149); test: Octet, IgG avid
T7 construct: also called human SIRPα D1-Fc; Human SIRPα Fc; not shown: C-terminal human IgG1 Fc

[5] = target: T1, mouse SIRPβ1 on CHO cells; test: flow cytometry
Method: (§4) Cells were then washed twice and incubated in 100 ul FACS buffer containing 0.5 μg/ml PE-conjugated secondary antibody for 30 minutes on ice. Cells were washed twice in cold FACS buffer and acquired on a BD FACS Canto. Data analysis and calculation of mean fluorescence intensity (MFI) values or 00 positive cells was performed with FlowJo (TreeStar) software version 10.0.7.
(§5) Given the high sequence similarity between receptors of the SIRPβ family, anti-SIRPβ1 antibodies were also screened for cross-reactivity to human SIRPα.

[6] = target: T6, human SIRPβ1 isoform 1 on cells; test: flow cytometry
Method: as §4, §5

human SIRPα on cells [7] = target: T5, human SIRPα on cells; test: flow cytometry
Method: as §4, §5

[8] = target: T6, human SIRPβ1 isoform 1 on cells; test: cell binding titration; target not given
mouse SIRPα on cells [9] = target: T2, mouse SIRPα on cells; test: flow cytometry;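 as to FOB: antibodies tested at 1 µg/ml for 30 min on ice against receptor-expressing cells, detected with a PE-labelled secondary antibody, read as mean fluorescence intensity relative to background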
human SIRPα on cells [10] = target: T5, human SIRPα on cells; test: flow cytometry; remark: listed apart in the source
[11] = target: T1, mouse SIRPβ1 on CHO cells; test: flow cytometry
Method: (§6) Initial characterization of anti-SIRPβ1 antibodies involved determining their ability to bind cell lines expressing human or mouse SIRPβ1. Cells were harvested, plated at 10⁶/ml in a 96-well plate, washed, and incubated in 100 μl FACS buffer containing 1 μg/ml anti-SIRPβ1 antibody for 0.5 hour on ice. Cells were then washed twice and incubated in 100 μl FACS buffer containing 0.5 μg/ml PE-conjugated secondary antibody for 30 minutes on ice. Cells were washed twice in cold FACS buffer and acquired on a BD FACS Canto. Data analysis and calculation of mean fluorescence intensity (MFI) values or 00 positive cells was performed with FlowJo (TreeStar) software version 10.0.7.
(§7) As a negative control, the anti-SIRPβ1 antibodies were also screened for surface binding to CHO cells overexpressing recombinant mouse SIRPβ31. […] Given the high sequence similarity between receptors of the SIRPβ family, anti-SIRPβ1 antibodies were also screened for cross-reactivity to human and mouse SIRPα.

[12] = target: T6, human SIRPβ1 isoform 1 on cells; test: flow cytometry; remark: listed apart in the source
Method: as §6, §7

mouse SIRPα on cells [13] = target: T2, mouse SIRPα on cells; test: flow cytometry; remark: listed apart in the source;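 as to FOB: antibodies tested at 1 µg/ml for 30 min on ice against receptor-expressing cells, detected with a PE-labelled secondary antibody, read as mean fluorescence intensity relative to background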
Method: as §6, §7

human SIRPα on cells [14] = target: T5, human SIRPα on cells; test: flow cytometry; remark: listed apart in the source
Method: as §6, §7

mouse SIRPα D1-Fc = target: T3, mouse SIRPα D1-Fc; test: Octet
Method: (§8) Briefly, Octet affinity measurements were performed by loading IgGs on-line onto AHQ sensors. Sensors were equilibrated off-line in assay buffer for 30 min and then monitored on-line for 60 seconds for baseline establishment. For avid binding measurement, sensors with loaded IgGs were exposed to 100 nM antigen (human SIRPα domain 1 (D1) Fc fusion or SIRPβ1 domain 1 (D1) Fc fusion) for 3 min, and then transferred to assay buffer for 3 min for off-rate measurement. Additional avid binding was determined by loading biotinylated SIRPβ1 monomer on SA sensors and exposing to 100 nM IgG in solution. Monovalent binding measurements were obtained by loading human SIRPα- or SIRPβ1-Fc fusion antigens onto AHQ sensor, followed by exposure to 100 nM anti-SIRPβ1 antibody Fab. Additional monovalent measurements were made by loading biotinylated human SIRPα or SIRPβ1 monomer to SA sensor followed by exposure to 100 nM Fab in solution. Kinetics data were fit using a 1:1 binding model in the data analysis software provided by ForteBio (ForteBio Data Analysis Software 7.0).

[15] = target: T7, human SIRPα domain 1 (D1) Fc fusion; test: Octet
Method: as §8

[16] = target: T6, human SIRPβ1 isoform 1 on cells; test: cell-based or functional assay
[17] = target: T8, human SIRPβ1-Fc isoform 3 (Q5TFQ8) (human, UniProt Q5TFQ8 30-371, limits assumed); test: ELISA on plate-coated huSirpB-Fc (Q5TFQ8.1), anti-human kappa-HRP, A450
T8 construct: Whole entry named; made in HEK293 cells; also called human SIRPβ1 isoform 3
Method: To ascertain if the selected anti-SIRPβ1 antibodies cross-reacted with other isoforms of human SIRPβ1 or with cynomolgus SIRPβ1, recombinant antigens based on human SIRPβ1 isoform 3 sequence and cynomolgus SIRPβ1 isoform 1 sequence were produced by transient transfection in HEK293 cells. Purified, Fc-tagged recombinant proteins were adsorbed onto 96-well plates at 1 μg/mL overnight at 4° C. Plates were subsequently washed with PBS+0.05% Tween-20 and blocked with 1% BSA+PBS for 2 hours at room temperature. Antibodies diluted in blocking buffer at 1 μg/mL were added to wells, serially diluted, and allowed to bind antigen overnight at 4° C. The following day, the primary antibodies were removed and anti-human kappa light chain antibody conjugated to horseradish peroxidase diluted 1:10,000 in blocking buffer were added to wells and incubated for 1 hour at room temperature. Plates were washed with PBS+0.05% Tween-20 and 100 μL of TMB substrate solution was added to wells to generate a colorimetric signal proportional to amount of anti-SIRPβ1 antibody bound to antigen. Once the reaction reached an appropriate color intensity, 100 μL of Stop solution was added to quench the enzyme.
(§9) Eight anti-SIRPβ1 antibodies (four parental antibodies and four corresponding affinity matured antibodies) were selected for analysis.

[18] = target: T9, Soluble, human SIRPβ1-Fc isoform 1 (O00241) (human, UniProt O00241 30-371, limits assumed); test: ELISA, antigen coated
T9 construct: Whole entry named; also called human SIRPβ1 isoform 1
T9 sequence (O00241 30-371 limits assumed, one chain of several): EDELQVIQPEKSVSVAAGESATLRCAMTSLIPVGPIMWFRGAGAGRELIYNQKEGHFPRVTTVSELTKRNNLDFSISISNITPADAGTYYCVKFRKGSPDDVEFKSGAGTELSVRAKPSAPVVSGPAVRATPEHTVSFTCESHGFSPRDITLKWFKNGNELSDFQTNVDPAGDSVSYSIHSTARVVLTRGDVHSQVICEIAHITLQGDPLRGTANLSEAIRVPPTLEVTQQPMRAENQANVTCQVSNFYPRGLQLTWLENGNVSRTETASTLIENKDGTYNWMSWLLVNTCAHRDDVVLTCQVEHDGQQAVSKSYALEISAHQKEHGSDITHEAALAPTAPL
From the text: Recombinant antigen based on the sequence of SIRPβ1 isoform 1 was used for selecting anti-SIRPβ1 antibodies from yeast library pools. To ascertain if the selected anti-SIRPβ1 antibodies cross-reacted with other isoforms of human SIRPβ1 or with cynomolgus SIRPβ1, recombinant antigens based on human SIRPβ1 isoform 3 sequence and cynomolgus SIRPβ1 isoform 1 sequence were produced by transient transfection in HEK293 cells. Purified, Fc-tagged recombinant proteins were adsorbed onto 96-well plates at 1 μg/mL overnight at 4° C. Plates were subsequently washed with PBS+0.05% Tween-20 and blocked with 1% BSA+PBS for 2 hours at room temperature. Antibodies diluted in blocking buffer at 1 μg/mL were added to wells, serially diluted, and allowed to bind antigen overnight at 4° C. The following day, the primary antibodies were removed and anti-human kappa light chain antibody conjugated to horseradish peroxidase diluted 1:10,000 in blocking buffer were added to wells and incubated for 1 hour at room temperature. Plates were washed with PBS+0.05% Tween-20 and 100 μL of TMB substrate solution was added to wells to generate a colorimetric signal proportional to amount of anti-SIRPβ1 antibody bound to antigen. Once the reaction reached an appropriate color intensity, 100 μL of Stop solution was added to quench the enzyme.
as §9

T4 sequence (Q9P1W8 29-387): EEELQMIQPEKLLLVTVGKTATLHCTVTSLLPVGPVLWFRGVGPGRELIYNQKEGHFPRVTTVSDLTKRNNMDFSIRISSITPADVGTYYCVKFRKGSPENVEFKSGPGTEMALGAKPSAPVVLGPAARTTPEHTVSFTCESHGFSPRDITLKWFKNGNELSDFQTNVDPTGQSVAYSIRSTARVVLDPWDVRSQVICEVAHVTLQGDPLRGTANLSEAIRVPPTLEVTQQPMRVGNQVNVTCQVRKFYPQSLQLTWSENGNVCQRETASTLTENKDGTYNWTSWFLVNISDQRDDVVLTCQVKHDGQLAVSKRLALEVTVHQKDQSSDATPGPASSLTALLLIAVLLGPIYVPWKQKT
T6 sequence (O00241 30-398): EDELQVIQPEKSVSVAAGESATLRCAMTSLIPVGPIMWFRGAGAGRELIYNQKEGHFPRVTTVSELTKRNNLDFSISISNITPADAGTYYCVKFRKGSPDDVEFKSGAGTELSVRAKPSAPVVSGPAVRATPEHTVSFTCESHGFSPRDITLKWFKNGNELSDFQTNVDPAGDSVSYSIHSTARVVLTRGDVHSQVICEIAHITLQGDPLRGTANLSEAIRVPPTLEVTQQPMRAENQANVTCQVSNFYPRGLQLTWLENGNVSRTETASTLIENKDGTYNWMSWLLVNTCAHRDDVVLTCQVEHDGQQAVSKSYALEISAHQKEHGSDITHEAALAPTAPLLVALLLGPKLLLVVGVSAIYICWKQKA
T8 sequence (Q5TFQ8 30-371 limits assumed, one chain of several): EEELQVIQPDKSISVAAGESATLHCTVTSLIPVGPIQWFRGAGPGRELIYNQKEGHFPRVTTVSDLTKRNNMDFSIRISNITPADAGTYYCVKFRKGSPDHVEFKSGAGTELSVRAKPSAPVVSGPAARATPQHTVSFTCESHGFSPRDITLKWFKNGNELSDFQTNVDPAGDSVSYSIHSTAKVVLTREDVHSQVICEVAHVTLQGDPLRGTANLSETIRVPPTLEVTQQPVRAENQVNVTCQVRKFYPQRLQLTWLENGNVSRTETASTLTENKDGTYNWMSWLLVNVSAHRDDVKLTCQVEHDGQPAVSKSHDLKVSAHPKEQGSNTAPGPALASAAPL

Row | binding result [1] | EC50 [3] [nM] | binding result [4] | FOB [5] [fold over background] | FOB [6] [fold over background] | FOB (human SIRPα on cells [7]) [fold over background] | EC50 [8] [nM] | binding result (mouse SIRPα on cells [9]) | binding result (human SIRPα on cells [10]) | FOB [11] [fold over background] | FOB [12] [fold over background] | FOB (mouse SIRPα on cells [13]) [fold over background] | FOB (human SIRPα on cells [14]) [fold over background] | binding result (mouse SIRPα D1-Fc) | binding result [15] | binding result [17] | EC50 [18] [nM] | Binder | binding result (SIRPγ on Jurkat cells) | binding result (human SIRPα on cells [2]) | viable Raji-Luc cells with neutrophils and anti-CD20 [16] [%]
1 | no binding (tested: 1 ug/ml) | 0.0284 | no binding (tested: 100 nM) | 2 | 4 | 0 | 0.062 |  |  |  |  |  |  |  |  |  |  | SB-1-3 (antibody, V domains shown, IgG) VH: EVQLVESGGGLVKPGGSLRLSCAASGFTFSAYGMNWVRQAPGKGLEWVSAITSSGRSTYYADSVKGRFTISRDNSKNTLYLQMNSLRAEDTAVYYCAKDFTEVVGWLGMDVWGQGTTVTVSS VL: EIVMTQSPGTLSLSPGERATLSCRASQSVSSSYLAWYQQKPGQAPRLLIYGASSRATGIPDRFSGSGSGTDFTLTISRLEPEDFAVYYCQLLGSSPRTFGGGTKVEIK | no binding (tested: Log nM about 1.8 (about 60 nM)) | no binding (tested: Log nM about 0.8 (about 7 nM)) | 
2 | no binding (tested: 1 ug/ml) | 0.203 | no binding (tested: 100 nM) | 1 | 5 | 1 | 0.174 |  |  |  |  |  |  |  |  |  |  | SB-2-8 (antibody, V domains shown, IgG) VH: QVQLVESGGGVVQPGRSLRLSCAASGFTFLDYGMHWVRQAPGKGLEWVSAISAFAGSTYADSVKGRFTISRDNSKNTLYLQMNSLRAEDTAVYYCARDQTAAAAIWGMDVWGQGTTVTVSS VL: EVVLTQSPGTLSLSPGERATLSCRASQSVSSSYLAWYQQKPGQAPRLLIYGASSRATGIPDRFSGSGSGTDFTLTISRLEPEDFAVYYCQQSSSHPFTFGGGTKVEIK | no binding (tested: Log nM about 1.8 (about 60 nM)) | no binding (tested: Log nM about 0.8 (about 7 nM)) | 
3 | no binding (tested: 1 ug/ml) | 0.596 | no binding (tested: 100 nM) | 1 | 7 | 1 | 0.737 |  |  |  |  |  |  |  |  |  |  | SB-8-15 (antibody, V domains shown, IgG) VH: QVQLQESGPGLVKPSETLSLTCAVSGYSISAHYYWGWIRQPPGKGLEWIGSIYQSGHTYYNPSLKSRVTISVDTSKNQFSLKLSSVTAADTAVYYCARGGAMTPAGMDVWGQGTTVTVSS VL: EIVMTQSPGTLSLSPGERATLSCRASQSVSSSYLAWYQQKPGQAPRLLIYGASNRATGIPDRFSGSGSGTDFTLTISRLEPEDFAVYYCQQVYSSPYTFGGGTKVEIK | no binding (tested: Log nM about 1.8 (about 60 nM)) | no binding (tested: Log nM about 0.8 (about 7 nM)) | 
4 | no binding (tested: 1 ug/ml) | 8.7 | no binding (tested: 100 nM) | 2 | 3 | 1 | 0.405 |  |  |  |  |  |  |  |  |  |  | SB-40-20 (antibody, V domains shown, IgG) VH: QVQLVQSGAEVKKPGASVKVSCKASGYTFTSFYISWVRQAPGQGLEWMGIINPSSGHTNYAQKLQGRVTMTTDTSTSTAYMELSSLRSEDTAVYYCARDTGEYSYSPHGMDVWGQGTTVTVSS VL: EIVLTQSPATLSLSPGERATLSCRASQSVSSYLAWYQQKPGQAPRLLIYDSSNRATGIPARFSGSGSGTDFTLTISSLEPEDFAVYYCQQRDEHPPWTFGGGTKVEIK | no binding (tested: Log nM about 1.8 (about 60 nM)) | no binding (tested: Log nM about 0.8 (about 7 nM)) | 

The next lines start with the binder.

Row | Binder | binding result [1] | EC50 [3] [nM] | binding result [4] | FOB [5] [fold over background] | FOB [6] [fold over background] | FOB (human SIRPα on cells [7]) [fold over background] | EC50 [8] [nM] | binding result (mouse SIRPα on cells [9]) | binding result (human SIRPα on cells [10]) | FOB [11] [fold over background] | FOB [12] [fold over background] | FOB (mouse SIRPα on cells [13]) [fold over background] | FOB (human SIRPα on cells [14]) [fold over background] | binding result (mouse SIRPα D1-Fc) | binding result [15] | binding result [17] | EC50 [18] [nM] | binding result (SIRPγ on Jurkat cells) | binding result (human SIRPα on cells [2]) | viable Raji-Luc cells with neutrophils and anti-CD20 [16] [%]
5 | SB-4 (antibody, V domains shown, IgG) VH: QVQLVQSGAEVKKPGASVKVSCKASGYTFTSYGISWVRQAPGQGLEWMGWISAYNGNTNYAQKLQGRVTMTTDTSTSTAYMELRSLRSDDTAVYYCARSGTHFGTYSYSNWFDPWGQGTLVTVSS VL: EIVLTQSPGTLSLSPGERATLSCRASQSVSSSYLAWYQQKPGQAPRLLIYGASSRATGIPDRFSGSGSGTDFTLTISRLEPEDFAVYYCQQYADAPITFGGGTKVEIK | no binding (tested: 1 ug/ml) |  |  |  |  |  |  | no binding (tested: 1 ug/ml) | no binding (tested: 1 ug/ml) | 1.2 | 1.7 | 0.9 | 2 | no binding (tested: 100 nM) | no binding (tested: 100 nM) |  |  |  |  | ~50
6 | SB-8-13 (antibody, V domains shown, IgG) VH: QVQLQESGPGLVKPSETLSLTCAVSGYSISAHYYWGWIRQPPGKGLEWIGSIFHSGHTYYNPSLKSRVTISVDTSKNQFSLKLSSVTAADTAVYYCARGGAMTPAGMDVWGQGTTVTVSS VL: EIVMTQSPGTLSLSPGERATLSCRASQSVSSSYLAWYQQKPGQAPRLLIYGASNRATGIPDRFSGSGSGTDFTLTISRLEPEDFAVYYCQQVYSSPYTFGGGTKVEIK | no binding (tested: 1 ug/ml) | 0.199 | no binding (tested: 100 nM) | 2 | 7 | 1 | 0.253 |  |  |  |  |  |  |  |  | no binding (tested: 1 ug/mL) | 0.019 | no binding (tested: Log nM about 1.8 (about 60 nM)) | no binding (tested: Log nM about 0.8 (about 7 nM)) | 
7 | SB-3 (antibody, V domains shown, IgG) VH: not shown VL: EIVMTQSPATLSLSPGERATLSCRASQSVSSYLAWYQQKPGQAPRLLIYDASNRATGIPARFSGSGSGTDFTLTISSLEPEDFAVYYCQQRLFHPPTFGGGTKVEIK | no binding (tested: 1 ug/ml) |  |  |  |  |  |  | no binding (tested: 1 ug/ml) | no binding (tested: 1 ug/ml) | 1.3 | 2.5 | 1.3 | 1.8 | no binding (tested: 100 nM) | no binding (tested: 100 nM) |  |  |  |  | ~50
